Data as given in publication PMC3925087.

Molecular target: Hen eggwhite lysozyme (HEWL), control (no iodoacetamide), in 50 mM phosphate buffer at pH 12.2 (hen) (UniProt P00698)
Assay: single-molecule force spectroscopy (AFM pulling); HEWL aggregates formed after 4 days of incubation at pH 12.2, 120 uM in 50 mM phosphate buffer, on a gold coated coverslip; pulling speed 400 nm/s

average detachment force: 1000 pN
mechanical stability (detachment peak force): 300 to 2600 pN
Substance: Hen eggwhite lysozyme (HEWL), control (no iodoacetamide), in 50 mM phosphate buffer at pH 12.2 (from UniProt P00698 19-147) (enzyme)
